Source: PMC10141391, “Structural Analysis of Bacillus subtilis Sigma Factors” (Microorganisms, 2023)

Target: T1, SigE^17–133 (B. subtilis SigE residues 17–133) (B. subtilis, 15N-labelled)
T1 construct: Cloned BamHI/XhoI into pET28-TxrA (His tag, thioredoxin, TEV site)
T1 chain: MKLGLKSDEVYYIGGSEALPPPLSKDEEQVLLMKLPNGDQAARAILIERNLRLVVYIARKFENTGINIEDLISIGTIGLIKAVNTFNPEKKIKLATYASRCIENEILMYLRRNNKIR
Test: NMR titration; 1H-15N HSQC chemical shift perturbation; 100 uM 15N-labelled SigE 17-133 alone and with a 2-fold excess of unlabelled CsfB A48E; 298 K, 700 MHz; 50 mM HEPES pH 7.5, 150 mM KCl, 0.5 mM TCEP
Conditions: both partners purified

B1: CsfB^A48E (natural protein, B. subtilis)
chain: MDETVKLNHTCVICDQEKNRGIHLYTKFICLDCERKVISTSTSDPDYEFYVKKLKSIHTPPLYS
notes: Anti-sigma factor CsfB (Gin), B. subtilis, with the stabilising mutation A48E; In pNIC28 (TEV-cleavable N-terminal His tag); also called CsfB/Gin; Gin; source: E. coli BL21(DE3)pLysS, purified (IMAC, SEC)
Q: Does B1 bind?
A: Result: binds
